In paper PMC6543813:
Where two headings read alike, the source gives them in different places.

How the values were obtained:
[1] = molecular target: recombinant VLDLR(1–8) fragment of the VLDL receptor; assay: SPR
[2] = molecular target: (β15–66)2-K^53K^54K^58 mutant fragment (UniProt P02675); assay: ELISA
[3] = molecular target: (β15–66)2-R^30 mutant fragment (UniProt P02675); assay: ELISA
[4] = molecular target: (β15–66)2-K^21K^22 mutant fragment (UniProt P02675); assay: ELISA
[5] = molecular target: recombinant dimeric (β15–66)2 fragment (UniProt P02675); assay: ELISA
[6] = molecular target: (β15–66)2-R^57 mutant fragment (UniProt P02675); assay: ELISA
[7] = molecular target: recombinant (β15–66)2-R^17 mutant with Arg17Glu mutation (UniProt P02675); assay: ELISA
[8] = molecular target: recombinant dimeric (β15–66)2 fragment (UniProt P02675); assay: ELISA; remark: listed apart in the source
[9] = molecular target: recombinant VLDLR(1–8) fragment of the VLDL receptor; assay: SPR; remark: listed apart in the source

| Kd [1] [µM] | Substance | also measured |
| --- | --- | --- |
| 0.175 | (β15–66)2-K^21K^22R^23 mutant fragment (from UniProt P02675 45-94) (domain or fragment) |  |
| 0.25 | (β15–66)2-K^53K^54K^58 mutant fragment (from UniProt P02675 45-94) (domain or fragment) |  |
| 6.1 | recombinant monomeric β15–64 fragment (from UniProt P02675 45-94) (domain or fragment) |  |

The next lines start with the substance.

| Substance | Kd [1] [µM] | also measured |
| --- | --- | --- |
| (β15–66)2-R^42R^44 mutant fragment (from UniProt P02675 45-94) (domain or fragment) | 0.204 |  |
| recombinant VLDLR(1–8) fragment of the VLDL receptor (domain or fragment) |  | Kd [2]: 0.124 µM; Kd [3]: 0.0063 µM; Kd [4]: 0.021 µM; Kd [5]: 0.0135 µM; Kd [6]: 0.0064 µM; Kd [7]: 0.0073 µM; Kd [8]: 0.0341 µM |
| recombinant dimeric (β15–66)2 fragment (from UniProt P02675 45-94) (domain or fragment) | 0.0111 | Kd [9]: 0.0205 µM |
| (β15–66)2-R^42R^44K^47 mutant fragment (from UniProt P02675 45-94) (domain or fragment) | 6.1 |  |
| (β15–66)2-K^21K^22 mutant fragment (from UniProt P02675 45-94) (domain or fragment) | 0.037 |  |
| (β15–66)2-K^53K^54R^57K^58 mutant fragment (from UniProt P02675 45-94) (domain or fragment) | 11.7 |  |
